The record followed here is publication PMC3538687, “Detection of Cyclic Diguanylate G-Octaplex Assembly and Interaction with Proteins”.

The target of data set [1] is T1, HIV-1 reverse transcriptase (HIV RT) (HIV-1 (HXB2 strain), UniProt P04585;P04585 588-1147;588-1027). The experiment in a line: competition (DRaCALA). The conditions noted are these: protein: commercial; copies: 1;1.
For a further data set, the target named is Thrombin protease (UniProt P00734;P00734 328-363;364-622). The experiment in a line: DRaCALA; 8 µM thrombin; DRaCALA on dry nitrocellulose, 10 min at room temperature; binding buffer and pH not given in the material. cdiGMP G8/M/D binding (a cyclic dinucleotide ligand).
Data set [2] concerns the target T1, HIV-1 reverse transcriptase (HIV RT). The experiment in a line: competition (DRaCALA); unlabeled PF1 vs 5 nM 32P-PF1; 960 nM RT. The conditions noted are these: protein: commercial; copies: 1;1.

As for CGCCTGACCCTTCAGGCGTTGGGTGGGTGGGTGGG (structured_DNA) [S4], the binding result in data set [1] is given as “binds”. On to GGTTGGTGTGGTTGG (structured_DNA) [TBA25], for which, in the data set with Thrombin protease, the binding result is recorded as “binds”.

In the case of TAATACCCCCCCTTCGGTGCAAAGCACCGAAGGGGGGG (structured_DNA) [38 NT SELEX], the binding result in data set [1] is listed as “binds”. As to AGGAAGGCTTTAGGTCTGAGATCTCGGAAT (structured_DNA) [PF1], in data set [2], the IC50 turned out to be 4 µM.
